In patent US20240254227A1 (Alector, published 2024) one finds gMFI, binding result and Kd data, which are given here for six molecules.

B1: anti-CD300LB antibody CD-01 (antibody, V domains shown)
VH: RVQLQQSGAELVRPGASVTLSCKASGFTFTDFEMHWVKKTPVHGLEWIGAIDPESGNTAYNQKFRGKATLTADKSSSTAYMELRYLTSEDSAVYYCTPLISGADYWGQGTTLTVSS
VL: DVVMTQSPLSLPVSLGDQASISCRSSQSLVHSDGNTYLYWYLQKPGQSPKLLIYKVSNRFSGVPDRFSGSGSGTDFTFKISRVGAEDLGVYFCSQSTHVPWTFGGGTKLEII
B2: anti-CD300LB antibody CD-02 (antibody, V domains shown)
VH: QVQLQQPGAELVRPGSSVKLSCQASGYTFTNYWMHWVRQRPIQGLEWIGNIDPSDSETHYNQKFKDRATLTVDKSSSTAYMQLSSLTSEDSAVYYCARSGVYDDEGGDYWGQGTTLTVSS
VL: ENVLTQSPAIMSASPGEKVTMTCSASSSVSYIHWYQQKSSTSPKLWIYDTSKLASGVPGRFSGSGSGNSYSLTISSMETEDVATYYCFQGSGYPLTFGAGTKLELK
B3: anti-CD300LB antibody CD-03 (antibody, V domains shown)
VH: EVQLQQSGPELVKPGASVKISCKASGYTFTDYYINWVRQSHGKSLECIGDINPNNGGTNYNQKFKGKATLTVDRSSNTAYMEFRSLTFDDSALYYCAAEGAYWGQGTLVTVSA
VL: not shown
B4: anti-CD300LB antibody CD-07 (antibody, V domains shown)
VH: QVQLVQSGAEVKKPGASVKVSCKASGYTFTNYRMHWVRQAPGQGLEWMGWINPNSGGTIYAQKFQGRVTMTRDTSTSTVYMELSSLRSEDTAVYYCARDLDYWGQGTLVTVSS
VL: DIQMTQSPSSLSASVGDRVTITCQASQDISNYLNWYQQKPGKAPKLLIYGASSLQSGVPSRFSGSGSGTDFTLTISSLQPEDFATYYCQQSYSTPWTFGPGTKVEIK
B5: anti-CD300LB antibody CD-05 (antibody, V domains shown)
VH: QVQLVQSGAEVKKPGASVKVSCKASGYTFSRYYINWVRQAPGQGLEWMGWINPNSGGTNYAQKFQGRVTMTRDTSTSTVYMELSSLRSEDTAVYYCTTDQLRFGKTGPYYGMDVWGQGTTVTVSS
VL: B4 VL with Q24R, D28N, S30G, N31T, G50A, T94D, P95T, W96L, P100G
B6: anti-CD300LB antibody CD-06 (antibody, V domains shown)
VH: QVQLVQSGAEVKKPGASVKVSCKASGYTFTTYAVHWVRQAPGQGLEWMGIVNPNSGGTNYAQKFQGRVTMTRDTSTSTVYMELSSLRSEDTAVYYCARDIVPMNNFYNYYYGMDVWGQGTTVTVSS
VL: B4 VL with Q24R, D28S, N31S, G50A, A51T, S53T, S93R, T94I, W96Y, P100Q

Substitutions are numbered along the chain they refer to.

One assay addresses T1, huCD300LB-DAP12 fusion constitutively expressed on 293 Freestyle (Freestyle HEK) cells (human).
T1 construct: also called Human CD300LB-DAP12 chimera
Kind of assay: flow cytometry, stable Freestyle HEK cells. Here is the method: (§1) Other members of the human CD300 family share sequence homology with human CD300LB. Thus, counter screens against binding of the anti-CD300LB antibodies to huCD300A, huCD300C, huCD300LD, huCD300E, huCD300LF, and huCD300G by stable overexpression in Freestyle HEK cells (generation of which is described above) were performed as follows. Cells were counted and labeled with 200 nM CFSE, 500 nM VioBlue, or a combination of the two to discriminate between CD300LB, Parental cells, and the other CD300 family members. Cells were washed thoroughly with PBS containing 2% fetal bovine serum then resuspended at a total of 240,000 cells per well. Hybridoma supernatants (100 L) or purified antibodies at various concentrations were added and incubated for one hour before the cells were washed twice again and stained with an APC-labeled anti-human or anti-mouse secondary antibody. Cells were then analyzed using a BD FACSCanto II. Anti-CD300LB antibodies were analyzed for specific binding to human CD300LB by FlowJo software by gating on live cells, then the APC geometric mean fluorescence intensity (gMFI) calculated for each labeled population. The results are shown in […]
(§2) Freestyle HEK cells were transfected with huCD300A, huCD300C, huCD300D, huCD300E, and huCD300G separately. Then, five stable cell lines from these transfections were pooled; the combined cells are herein known as CD300A/C/D/E/G. Freestyle HEK cells were also transfected with huCD300LB and huCD300F. All transfected cells were then tested for binding of anti-CD300LB antibodies of the present disclosure.
Background: Flow cytometry measures light scatter and fluorescence of single cells or particles in a stream.
On to B1, for which the gMFI was 45 gMFI.
On the same count and under the same terms, as for B2, the figure is 108 gMFI; as for B3, 163000 gMFI.
On the same count and under the same terms, as for B4, the figure is 31500 gMFI.
The same measure, in the same setting: as for B5, the figure is 113000 gMFI; as for B6, 80900 gMFI.

For the next assay, the target named is T2, huCD300F constitutively expressed on 293 Freestyle (Freestyle HEK) cells (human, UniProt Q8TDQ1 20-290).
T2 construct: also called huCD300LF; Human CD300F
T2 sequence: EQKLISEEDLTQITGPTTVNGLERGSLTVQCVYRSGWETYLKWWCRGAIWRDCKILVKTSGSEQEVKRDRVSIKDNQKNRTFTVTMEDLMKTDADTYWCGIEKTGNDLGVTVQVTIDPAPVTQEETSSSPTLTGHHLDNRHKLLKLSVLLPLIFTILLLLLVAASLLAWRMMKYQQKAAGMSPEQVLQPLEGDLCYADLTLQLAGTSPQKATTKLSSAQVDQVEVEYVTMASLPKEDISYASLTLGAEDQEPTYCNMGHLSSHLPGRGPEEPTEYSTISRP
Kind of assay: flow cytometry, stable Freestyle HEK cells. Here is the method: as §1, §2
For the molecule B1, the gMFI was -26 gMFI.
Take B2: the gMFI was -93 gMFI.
Turning to B3, the binding result was “no binding” and the gMFI is 2090 gMFI.
The matching figures for B4: “no binding” and 112 gMFI.
The like results for B5 were, in that order, “no binding” and 2730 gMFI.
With B6, the binding result is “no binding” and the gMFI worked out at 886 gMFI.

The target in another assay is T3, human CD300LB transiently expressed on HEK293 cells (human, UniProt A8K4G0 18-201).
T3 construct: CD300LB expression constructs'; also called huCD300LB HEK293
T3 sequence: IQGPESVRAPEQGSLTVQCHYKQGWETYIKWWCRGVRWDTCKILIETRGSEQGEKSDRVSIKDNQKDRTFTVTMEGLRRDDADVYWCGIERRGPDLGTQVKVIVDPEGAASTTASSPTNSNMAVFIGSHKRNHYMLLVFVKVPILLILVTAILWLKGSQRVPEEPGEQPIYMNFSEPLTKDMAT
Kind of assay: flow cytometry, transfected HEK293, 10 ug/mL, isotype subtracted. Here is the method: In addition, supernatants or purified antibodies were tested for species crossreactivity by comparing the binding of human, mouse, and cynomolgous monkey CD300LB expressing cell lines. HEK293 were transfected with […] of human, mouse, and cyno CD300LB expression constructs using the Mirus system in 10 cm tissue culture dishes. Cells were then incubated for 24 hours in complete medium. Cells were harvested by incubation in TrypLE Express, then washed with PBS and labeled with 200 nM CFSE, 500 nM VioBlue, or a combination of the two to discriminate between human, mouse, and cyno CD300LB expressing cells. Cells were washed thoroughly with PBS containing 2% fetal bovine serum then resuspended at a total of 240,000 cells per well. Purified antibodies at 10 μg/mL were added and incubated for one hour before the cells were washed again and stained with an APC-labeled anti-human or anti-mouse secondary. Cells were then analyzed using a BD FACSCanto II. Antibodies were analyzed for specific binding to human, mouse, or cyno CD300LB by FlowJo software by gating on live cells, then the APC gMFI calculated for each labeled population minus the gMFI of the isotype control.
As to B1, the gMFI turned out to be 166 gMFI.
Same read-out and setting: the same measure for B2: 578 gMFI.
The same measure, in the same setting: the same measure for B3: 38.7 gMFI.
Same read-out and setting: as for B4, the figure is 686 gMFI.
In the case of B5, the gMFI was found to be 933 gMFI.
On to B6, for which the gMFI was 314 gMFI.

A further assay concerns the target T4, recombinant human CD300LB overexpressed on Jurkat cells (human, UniProt A8K4G0 18-201).
T4 construct: also called huCD300LB; huCD300LB-expressing Jurkat cells
T4 sequence: T3 sequence
In words: flow cytometry on Jurkat cells overexpressing huCD300LB, apparent KD (Drake & Klakamp fit). Here is the method:
Purified anti-CD300LB antibodies of the present disclosure were evaluated for their binding affinity to either Jurkat cells overexpressing recombinant huCD300LB or BaF/3 cells overexpressing recombinant muCD300LB. Binding of anti-CD300LB antibodies to the cells was determined as follows. Cells were harvested, washed, and labeled with propidium iodide for viability discrimination. After washing the cells with PBS, 1×10⁵ cells were aliquoted per well in 96-well U-bottom plates and incubated with 100 μL of purified anti-CD300LB antibody at various concentrations in FACS buffer (PBS+2% FBS). After this primary incubation, the supernatant was removed via centrifugation, the cells washed twice with 150 μL of ice-cold FACS buffer, and then incubated with the appropriate secondary antibody on ice for 30 minutes. Following the secondary antibody incubation, the cells were again washed twice with ice-cold FACS buffer and resuspended in a final volume of 200 L FACS buffer. Flow cytometry analysis was then performed using the FACSCanto system (BD Biosciences).
To determine affinity, antibodies at increasing concentrations were used to stain Jurkat cells overexpressing huCD300LB and geometric MFI values measured by the flow cytometer were analyzed on Prism (Graphpad) software.
B1: the Kd was determined as 27 nM.
The same measure, in the same setting: as for B2, the figure is 64 nM.
Same read-out and setting: the same measure for B4: 66 nM; for B5: 15 nM.
For the molecule B6, the Kd amounted to 329 nM.
